This is an account of results in article PMC3949746.

In assay [1] the target is ribulose-1,5-bisphosphate carboxylase/oxygenase (RuBisCO) large subunit of Serratia sp. ISTD04 (Serratia sp. ISTD04 (endogenous)). Description: SEC; native RuBisCO purified from Serratia sp. ISTD04, Superdex 200 FPLC gel filtration in buffer A (200 mM Tris-Cl, 10 mM MgCl2, 132 mM KHCO3, 10 mM DTT, ATP, pH 7.8), 0.5 ml/min, 4°C; subunits of the eluted enzyme shown by SDS-PAGE (12%). In general terms: SEC sorts molecules by how far they enter the pores of the column.

In assay [2] the target is ribulose-1,5-bisphosphate carboxylase/oxygenase (RuBisCO) small subunit of Serratia sp. ISTD04 (Serratia sp. ISTD04 (endogenous)). Described as above.

A word on the stoichiometry N: it is a count of units in the complex or per binding partner. With “ribulose-1,5-bisphosphate carboxylase/oxygenase (RuBisCO) large subunit of Serratia sp. ISTD04 (natural protein)”, the stoichiometry N in assay [1] was found to be 8.

In assay [2], “ribulose-1,5-bisphosphate carboxylase/oxygenase (RuBisCO) small subunit of Serratia sp. ISTD04 (natural protein)” had a stoichiometry N of 8.
